In patent US7662384B2, “Use of anti-α5β1 antibodies to inhibit cancer cell proliferation” (Facet Biotech Corporation, priority 2004, dated 2010):

How the values were obtained:
angiogenesis = conditions: monkey eye model; cited from earlier work
LOX = assay: M200 in vitro cell proliferation assay; type: cell-based; conditions: LOX (melanoma)
Experimental: Cancer cell lines were plated at a density of 2500 cells/well in 96-well plates in IMDM with supplements in the presence or absence of 10% FBS. At the time of plating, cells were challenged with various concentrations M200 or a non-function blocking anti-α5 antibody, VC5. […] All growth studies were done at least 3 times in triplicate.

CHL-1 = assay: M200 in vitro cell proliferation assay; type: cell-based; conditions: CHL-1 (melanoma), 4-day assay
Experimental: Cancer cell lines were plated at a density of 2500 cells/well in 96-well plates in IMDM with supplements in the presence or absence of 10% FBS. At the time of plating, cells were challenged with various concentrations M200 or a non-function blocking anti-α5 antibody, VC5. Four days later, cell viability was assessed by the CellTiter 96 AQueous Non-Radioactive Cell Proliferation Assay (Promega) according to the manufacturer's instructions. All growth studies were done at least 3 times in triplicate.

rat α5β1 integrin = assay: species cross-reactivity of anti-α5β1 antibody; type: binding

B1: M200: chimeric IgG4 anti-α5β1 antibody derived from IIA1; generic name volociximab (antibody, V domains shown)
VH: MAVLGLLLCLVTFPSCVLSQVQLKESGPGLVAPSQSLSITCTISGFSLTDYGVHWVRQPPGKGLEWLVVIWSDGSSTYNSALKSRMTIRKDNSKSQVFLIMNSLQTDDSAMYYCARHGTYYGMTTTGDALDYWGQGTSVTVSS
VL: MDFQVQIFSFLLISASVIMSRGQIVLTQSPAIMSASLGERVTMTCTASSSVSSNYLHWYQQKPGSAPNLWIYSTSNLASGVPARFSGSGSGTSYSLTISSMEAEDAATYYCHQYLRSPPTFGGGTKLEIKDMSVDMSV
modifications: chimeric antibody
notes: chimeric IgG4 anti-α5β1 antibody derived from IIA1; generic name volociximab
In the case of B1, the “in vivo anti-angiogenic efficacy” value (angiogenesis) is listed as “in vivo anti-angiogenic efficacy”, the “% Growth Inhibition +Serum” value (LOX; 10% FBS, 4-day assay) is listed as 35% and the “% Growth Inhibition −Serum” value (LOX; absence of serum, 2-day rather than 4-day assay) is listed as 40^2%. For the same molecule, the “% Growth Inhibition +Serum” value (CHL-1; 10% FBS) was 0%, the “% Growth Inhibition −Serum” value (CHL-1; absence of serum) was 0% and the “cross reaction with rat α5β1 integrin” value (rat α5β1 integrin) was “does not cross react”.
